How the values were obtained:
[1] = target: T1, LgBiT-MR (mineralocorticoid receptor with LgBiT at the N-terminus) (UniProt P08235 1-984); assay: split reporter (BiFC, NanoBiT); NanoBiT in intact HEK293T cells, Dex (10^-6 M) together with Spi (10^-5 M) added after baseline, luminescence over 60 min, normalised to baseline and given as fold versus solvent; details: partners not purified
T1 construct: mineralocorticoid receptor (MR, NR3C2); NanoBiT fusion; also called pLgBiT-MR; source: HEK293T, transfected (calcium phosphate), in intact cells; not shown: LgBiT, N-terminal, kept
T1 sequence (looked up): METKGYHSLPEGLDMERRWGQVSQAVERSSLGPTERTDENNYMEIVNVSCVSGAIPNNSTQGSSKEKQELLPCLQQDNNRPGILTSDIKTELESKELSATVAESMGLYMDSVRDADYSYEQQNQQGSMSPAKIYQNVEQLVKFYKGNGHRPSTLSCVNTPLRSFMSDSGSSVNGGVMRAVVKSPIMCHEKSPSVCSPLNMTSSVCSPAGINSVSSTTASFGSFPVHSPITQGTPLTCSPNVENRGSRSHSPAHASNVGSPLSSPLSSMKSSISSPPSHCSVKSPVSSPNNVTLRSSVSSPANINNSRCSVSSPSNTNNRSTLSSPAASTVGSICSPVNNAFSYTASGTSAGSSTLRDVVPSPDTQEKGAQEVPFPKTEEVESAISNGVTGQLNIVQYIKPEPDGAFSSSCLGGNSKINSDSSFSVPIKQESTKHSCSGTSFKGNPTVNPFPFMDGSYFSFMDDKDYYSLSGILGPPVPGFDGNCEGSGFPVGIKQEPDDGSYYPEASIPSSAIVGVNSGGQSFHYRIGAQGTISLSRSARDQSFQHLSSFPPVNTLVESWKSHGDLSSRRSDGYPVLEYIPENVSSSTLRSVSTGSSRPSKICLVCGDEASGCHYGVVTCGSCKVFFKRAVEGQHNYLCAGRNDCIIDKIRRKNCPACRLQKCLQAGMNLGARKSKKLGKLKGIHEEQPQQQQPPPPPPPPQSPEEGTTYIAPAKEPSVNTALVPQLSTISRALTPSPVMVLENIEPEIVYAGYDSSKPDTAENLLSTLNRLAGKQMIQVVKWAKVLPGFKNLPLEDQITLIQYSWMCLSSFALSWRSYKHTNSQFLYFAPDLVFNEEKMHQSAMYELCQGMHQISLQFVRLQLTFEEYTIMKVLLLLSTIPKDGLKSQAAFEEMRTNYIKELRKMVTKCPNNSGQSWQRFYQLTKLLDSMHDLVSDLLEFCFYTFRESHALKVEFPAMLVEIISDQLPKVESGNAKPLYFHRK

[2] = target: T1, LgBiT-MR (mineralocorticoid receptor …); assay: split reporter (BiFC, NanoBiT); NanoBiT in intact HEK293T cells, Dex (10^-6 M) added after baseline, luminescence over 60 min, normalised to baseline and given as fold versus solvent; details: partners not purified

B1: GR-SmBiT (glucocorticoid receptor with SmBiT at the C-terminus) (receptor, UniProt P04150 1-777, looked up)
chain: MDSKESLTPGREENPSSVLAQERGDVMDFYKTLRGGATVKVSASSPSLAVASQSDSKQRRLLVDFPKGSVSNAQQPDLSKAVSLSMGLYMGETETKVMGNDLGFPQQGQISLSSGETDLKLLEESIANLNRSTSVPENPKSSASTAVSAAPTEKEFPKTHSDVSSEQQHLKGQTGTNGGNVKLYTTDQSTFDILQDLEFSSGSPGKETNESPWRSDLLIDENCLLSPLAGEDDSFLLEGNSNEDCKPLILPDTKPKIKDNGDLVLSSPSNVTLPQVKTEKEDFIELCTPGVIKQEKLGTVYCQASFPGANIIGNKMSAISVHGVSTSGGQMYHYDMNTASLSQQQDQKPIFNVIPPIPVGSENWNRCQGSGDDNLTSLGTLNFPGRTVFSNGYSSPSMRPDVSSPPSSSSTATTGPPPKLCLVCSDEASGCHYGVLTCGSCKVFFKRAVEGQHNYLCAGRNDCIIDKIRRKNCPACRYRKCLQAGMNLEARKTKKKIKGIQQATTGVSQETSENPGNKTIVPATLPQLTPTLVSLLEVIEPEVLYAGYDSSVPDSTWRIMTTLNMLGGRQVIAAVKWAKAIPGFRNLHLDDQMTLLQYSWMFLMAFALGWRSYRQSSANLLCFAPDLIINEQRMTLPCMYDQCKHMLYVSSELHRLQVSYEEYLCMKTLLLLSSVPKDGLKSQELFDEIRMTYIKELGKAIVKREGNSSQNWQRFYQLTKLLDSMHEVVENLLNYCFQTFLDKTMSIEFPEMLAEIITNQIPKYSNGNIKKLLFHQK
notes: glucocorticoid receptor (GR, NR3C1); NanoBiT fusion; also called pGR-SmBiT; source: HEK293T, transfected (calcium phosphate), in intact cells; not shown: SmBiT, C-terminal, kept
For B1, which “fold induction of NanoBiT luminescence versus solvent (with Dex and Spi)” value [1] is on record?
The value was ~6 fold.

What about the “fold induction of NanoBiT luminescence versus solvent (with Dex)” value [2] of the same binder?
Its value is ~8 fold.

Source: paper PMC10425521, “Crosstalk between glucocorticoid and mineralocorticoid receptors boosts glucocorticoid-induced killing of multiple myeloma cells” (Cellular and Molecular Life Sciences: CMLS, 2023)
